# Patent US20070160576A1, “IL-17A/F heterologous polypeptides and therapeutic uses thereof” (Genentech, Inc., priority 2001, published 2007)
# Key:
# [1] = biological target: T1, PRO5801 (human IL-17RH1 receptor) (Homo sapiens, UniProt Q9NRM6); test: Receptor/ligand interaction screening assay (immunoadhesin); format: binding
# T1 sequence (Q9NRM6 18-502): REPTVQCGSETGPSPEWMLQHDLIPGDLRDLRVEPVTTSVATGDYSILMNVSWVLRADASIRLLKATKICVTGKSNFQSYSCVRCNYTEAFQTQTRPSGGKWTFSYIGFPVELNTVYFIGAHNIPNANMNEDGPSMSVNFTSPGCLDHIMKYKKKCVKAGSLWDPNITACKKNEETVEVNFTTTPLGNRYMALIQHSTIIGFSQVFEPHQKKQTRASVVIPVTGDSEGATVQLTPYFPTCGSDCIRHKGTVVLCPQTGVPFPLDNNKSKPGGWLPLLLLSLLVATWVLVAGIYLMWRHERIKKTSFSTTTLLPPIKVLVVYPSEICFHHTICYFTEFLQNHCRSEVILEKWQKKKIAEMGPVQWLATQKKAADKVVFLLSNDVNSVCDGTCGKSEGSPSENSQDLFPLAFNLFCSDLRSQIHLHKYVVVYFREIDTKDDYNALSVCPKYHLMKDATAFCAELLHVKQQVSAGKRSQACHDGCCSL
# Description: (§1) In general, the assay is performed as follows. A PRO polypeptide of the present invention suspected of being a ligand for a receptor is expressed as a fusion protein containing the Fc domain of human IgG (an immunoadhesin). Receptor-ligand binding is detected by allowing interaction of the immunoadhesin polypeptide with cells (e.g. Cos cells) expressing candidate PRO polypeptide receptors and visualization of bound immunoadhesin with fluorescent reagents directed toward the Fc fusion domain and examination by microscope. Cells expressing candidate receptors are produced by transient transfection, in parallel, of defined subsets of a library of cDNA expression vectors encoding PRO polypeptides that may function as receptor molecules. Cells are then incubated for 1 hour in the presence of the PRO polypeptide immunoadhesin being tested for possible receptor binding. The cells are then washed and fixed with paraformaldehyde. The cells are then incubated with fluorescent conjugated antibody directed against the Fc portion of the PRO polypeptide immunoadhesin (e.g. FITC conjugated goat anti-human-Fc antibody). The cells are then washed again and examined by microscope. A positive interaction is judged by the presence of fluorescent labeling of cells transfected with cDNA encoding a particular PRO polypeptide receptor or pool of receptors and an absence of similar fluorescent labeling of similarly prepared cells that have been transfected with other cDNA or pools of cDNA. If a defined pool of cDNA expression vectors is judged to be positive for interaction with a PRO polypeptide immunoadhesin, the individual cDNA species that comprise the pool are tested individually (the pool is “broken down”) to determine the specific cDNA that encodes a receptor able to interact with the PRO polypeptide immunoadhesin.
# (§2) In another embodiment of this assay, an epitope-tagged potential ligand PRO polypeptide (e.g., 8 histidine “His” tag) is allowed to interact with a panel of potential receptor PRO polypeptide molecules that have been expressed as fusions with the Fc domain of human IgG (immunoadhesins). Following a 1 hour co-incubation with the epitope tagged PRO polypeptide, the candidate receptors are each immunoprecipitated with protein A beads and the beads are washed. Potential ligand interaction is determined by Western blot analysis of the immunoprecipitated complexes with antibody directed towards the epitope tag. An interaction is judged to occur if a band of the anticipated molecular weight of the epitope tagged protein is observed in the Western blot analysis with a candidate receptor, but is not observed to occur with the other members of the panel of potential receptors.
# [2] = biological target: human IL-17 receptor (IL-17R, PRO1) (Homo sapiens, UniProt Q96F46); test: as above; format: binding
# Description: as §1, §2
# [3] = biological target: T2, human IL-17 receptor (IL-17R, PRO1) as tested in the receptor/ligand screen (human, UniProt Q96F46 33-320, limits assumed); test: receptor/ligand screen (immunoadhesin on transfected cells or co-immunoprecipitation)
# T2 construct: also called IL-7R (as misprinted)
# Source text: (§3) A PRO polypeptide of the present invention suspected of being a ligand for a receptor is expressed as a fusion protein containing the Fc domain of human IgG (an immunoadhesin). Receptor-ligand binding is detected by allowing interaction of the immunoadhesin polypeptide with cells (e.g. Cos cells) expressing candidate PRO polypeptide receptors and visualization of bound immunoadhesin with fluorescent reagents directed toward the Fc fusion domain and examination by microscope. Cells expressing candidate receptors are produced by transient transfection, in parallel, of defined subsets of a library of cDNA expression vectors encoding PRO polypeptides that may function as receptor molecules. Cells are then incubated for 1 hour in the presence of the PRO polypeptide immunoadhesin being tested for possible receptor binding. The cells are then washed and fixed with paraformaldehyde. […]
# (§4) In another embodiment of this assay, an epitope-tagged potential ligand PRO polypeptide (e.g., 8 histidine “His” tag) is allowed to interact with a panel of potential receptor PRO polypeptide molecules that have been expressed as fusions with the Fc domain of human IgG (immunoadhesins). […] Potential ligand interaction is determined by Western blot analysis of the immunoprecipitated complexes with antibody directed towards the epitope tag.
# [4] = biological target: T3, PRO5801 (human IL-17RH1 receptor) as tested in the receptor/ligand screen (human, UniProt Q9NRM6 18-292, limits assumed); test: as above
# T3 sequence (looked up): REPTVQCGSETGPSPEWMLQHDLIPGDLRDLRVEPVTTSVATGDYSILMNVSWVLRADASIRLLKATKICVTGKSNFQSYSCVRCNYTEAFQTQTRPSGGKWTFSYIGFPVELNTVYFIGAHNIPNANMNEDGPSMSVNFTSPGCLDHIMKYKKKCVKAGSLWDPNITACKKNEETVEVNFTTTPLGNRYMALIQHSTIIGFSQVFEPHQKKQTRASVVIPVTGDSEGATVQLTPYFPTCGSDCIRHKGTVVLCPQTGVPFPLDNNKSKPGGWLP
# Source text: as §3, §4
molecule,measurement,setting,value
"PRO1031 (human IL-17B ligand) (ligand, UniProt Q9UHF5 21-180, looked up) QPRSPKSKRKGQGRPGPLAPGPHQVPLDLVSRMKPYARMEEYERNIEEMVAQLRNSSELAQRKCEVNLQLWMSNKRSLSPWGYSINHDPSRIPVDLPEARCLCLGCVNPFTMQEDRSMVSVPVFSQVPVRRRLCPPPPRTGPCRQRAVMETIAVGCTCIF",binding to IL-17RH1 receptor (PRO5801),[1],binds to
same,"binding to human IL-17 receptor (IL-17R, PRO1)",[2],do not bind
same,binding result,[3],no binding
same,binding result,[4],binds
